Where two headings read alike, the source gives them in different places.
Assays:
Trop-2 [1] = biological target: T1, Trop-2 (human, UniProt P09758 27-323); test: cell-based or functional assay
T1 sequence (looked up): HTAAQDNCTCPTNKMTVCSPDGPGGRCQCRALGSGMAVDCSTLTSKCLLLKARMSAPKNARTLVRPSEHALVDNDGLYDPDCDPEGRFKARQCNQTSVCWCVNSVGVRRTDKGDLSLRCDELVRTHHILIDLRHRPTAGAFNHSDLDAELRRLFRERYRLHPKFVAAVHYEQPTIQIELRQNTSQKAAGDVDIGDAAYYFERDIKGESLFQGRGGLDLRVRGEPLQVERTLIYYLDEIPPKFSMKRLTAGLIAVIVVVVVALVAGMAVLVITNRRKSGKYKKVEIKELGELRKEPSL

Trop-2 [2] = biological target: T1, Trop-2; test: cell-based or functional assay; remark: listed apart in the source
mouse Trop-2 = biological target: T2, mouse Trop-2 (mouse, UniProt Q8BGV3 25-270, limits assumed); test: not described (data not shown)
T2 sequence (looked up): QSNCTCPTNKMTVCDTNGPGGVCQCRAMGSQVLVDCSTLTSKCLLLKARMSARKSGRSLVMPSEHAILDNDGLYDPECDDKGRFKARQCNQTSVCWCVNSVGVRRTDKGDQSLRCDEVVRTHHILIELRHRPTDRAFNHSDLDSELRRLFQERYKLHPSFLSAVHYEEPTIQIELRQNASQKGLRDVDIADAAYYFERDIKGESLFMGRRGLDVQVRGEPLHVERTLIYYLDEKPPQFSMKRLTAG

mouse CD3 = biological target: T3, mouse CD3 (mouse, UniProt P22646 22-108); test: not described (data not shown)
T3 sequence (looked up): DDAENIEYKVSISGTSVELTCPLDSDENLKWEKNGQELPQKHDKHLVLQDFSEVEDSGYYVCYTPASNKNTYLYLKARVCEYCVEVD

Trop-2 [3] = biological target: T1, Trop-2; test: assay not described; specificity EGP-1 per Table 11
Trop-2 [4] = biological target: T1, Trop-2; test: as above; remark: listed apart in the source

B1: (E1)-3s (bispecific antibody)
scFv: not shown
heavy (part 1 of 2): QVQLQQSGSELKKPGASVKVSCKASGYTFTNYGMNWVKQAPGQGLKWMGWINTYTGEPTYTDDFKGRFAFSLDTSVSTAYLQISSLKADDTAVYFCARGGFGSSYWYFDVWGQGSLVTVSS
heavy (part 2 of 2): not shown
light: DIQLTQSPSSLSASVGDRVSITCKASQDVSIAVAWYQQKPGKAPKLLIYSASYRYTGVPDRFSGSGSGTDFTLTISSLQPEDFAVYYCQQHYITPLTFGAGTKVEIK
notes: also called TROP2-targeting bsAb; anti-human Trop-2 x anti-human CD3 bispecific antibody; not shown: human CH1, hinge residues and Gly/Ser linker; human kappa constant domain
With B1 the “EC50, T-cell lysis of NCI-N87 cells, very weak donor T cells” value (Trop-2 [1]) was 39 pM, the “EC50, T-cell lysis of NCI-N87 cells, very weak donor T cells, with peginterferonalfa-2a” value (Trop-2 [1]) was 1.4 pM and the “IC50, T-cell killing of BxPC3 cells” value (Trop-2 [1]) was 0.4 pM. The “IC50, T-cell lysis of NCI-N87 cells, donor of very active T cells” value (Trop-2 [1]) was 0.37 pM, the “IC50, T-cell lysis of NCI-N87 cells, with 0.1 nM 20*-2b” value (Trop-2 [1]) was 0.05 pM and the “IC50, T-cell lysis of NCI-N87 cells, with 0.1 nM peginterferonalfa-2a” value (Trop-2 [1]) was 0.14 pM. For the same binder, the “IC50, T-cell mediated lysis of Capan-1 cells” value (Trop-2 [1]) was 29 pM, the “IC50, T-cell mediated lysis of NCI-N87 cells” value (Trop-2 [1]) was 0.85 pM and the “IC50, T cell redirected killing of BxPC3, Donor 1” value (Trop-2 [2]) was 1.06 pM. For the same binder, the “IC50, T cell redirected killing of BxPC3, Donor 2” value (Trop-2 [2]) was 0.56 pM, the “IC50, T cell redirected killing of BxPC3, Donor 3” value (Trop-2 [2]) was 0.32 pM and the “IC50, T cell redirected killing of Capan-1, Donor 1” value (Trop-2 [2]) was 35.6 pM. For the same binder, the “IC50, T cell redirected killing of Capan-1, Donor 2” value (Trop-2 [2]) was 248 pM, the “IC50, T cell redirected killing of Capan-1, Donor 4” value (Trop-2 [2]) was 8.51 pM and the “IC50, T cell redirected killing of NCI-N87, Donor 1” value (Trop-2 [2]) was 6.76 pM. The “IC50, T cell redirected killing of NCI-N87, Donor 2” value (Trop-2 [2]) was 34 pM, the binding result (mouse Trop-2) was “no binding” and the binding result (mouse CD3) was “no binding”.

B2: C-AD2-IgG-hRS7 (antibody)
heavy (part 1 of 2): B1 heavy (part 1 of 2)
heavy (part 2 of 2): CGQIEYLAKQIVDNAIQQAGC
light: B1 light
notes: not shown: IgG heavy chain constant region and linker; kappa constant domain
B2: binds (Trop-2 [3]).

B3: C-DDD2-Fab-hRS7 (Fab)
heavy (part 1 of 2): B1 heavy (part 1 of 2)
heavy (part 2 of 2): not shown
light: B1 light
notes: also called CH1-DDD2-Fab-hRS7; not shown: CH1, hinge residues and linker; kappa constant domain
B3: binds (Trop-2 [4]).

— patent EP3107577B1 (IBC Pharmaceuticals, Inc., dated 2024)
